Measured values from patent US8673862 (dated 2014).

T1: angiotensin converting enzyme (ACE) (UniProt P12821)
T1 chain: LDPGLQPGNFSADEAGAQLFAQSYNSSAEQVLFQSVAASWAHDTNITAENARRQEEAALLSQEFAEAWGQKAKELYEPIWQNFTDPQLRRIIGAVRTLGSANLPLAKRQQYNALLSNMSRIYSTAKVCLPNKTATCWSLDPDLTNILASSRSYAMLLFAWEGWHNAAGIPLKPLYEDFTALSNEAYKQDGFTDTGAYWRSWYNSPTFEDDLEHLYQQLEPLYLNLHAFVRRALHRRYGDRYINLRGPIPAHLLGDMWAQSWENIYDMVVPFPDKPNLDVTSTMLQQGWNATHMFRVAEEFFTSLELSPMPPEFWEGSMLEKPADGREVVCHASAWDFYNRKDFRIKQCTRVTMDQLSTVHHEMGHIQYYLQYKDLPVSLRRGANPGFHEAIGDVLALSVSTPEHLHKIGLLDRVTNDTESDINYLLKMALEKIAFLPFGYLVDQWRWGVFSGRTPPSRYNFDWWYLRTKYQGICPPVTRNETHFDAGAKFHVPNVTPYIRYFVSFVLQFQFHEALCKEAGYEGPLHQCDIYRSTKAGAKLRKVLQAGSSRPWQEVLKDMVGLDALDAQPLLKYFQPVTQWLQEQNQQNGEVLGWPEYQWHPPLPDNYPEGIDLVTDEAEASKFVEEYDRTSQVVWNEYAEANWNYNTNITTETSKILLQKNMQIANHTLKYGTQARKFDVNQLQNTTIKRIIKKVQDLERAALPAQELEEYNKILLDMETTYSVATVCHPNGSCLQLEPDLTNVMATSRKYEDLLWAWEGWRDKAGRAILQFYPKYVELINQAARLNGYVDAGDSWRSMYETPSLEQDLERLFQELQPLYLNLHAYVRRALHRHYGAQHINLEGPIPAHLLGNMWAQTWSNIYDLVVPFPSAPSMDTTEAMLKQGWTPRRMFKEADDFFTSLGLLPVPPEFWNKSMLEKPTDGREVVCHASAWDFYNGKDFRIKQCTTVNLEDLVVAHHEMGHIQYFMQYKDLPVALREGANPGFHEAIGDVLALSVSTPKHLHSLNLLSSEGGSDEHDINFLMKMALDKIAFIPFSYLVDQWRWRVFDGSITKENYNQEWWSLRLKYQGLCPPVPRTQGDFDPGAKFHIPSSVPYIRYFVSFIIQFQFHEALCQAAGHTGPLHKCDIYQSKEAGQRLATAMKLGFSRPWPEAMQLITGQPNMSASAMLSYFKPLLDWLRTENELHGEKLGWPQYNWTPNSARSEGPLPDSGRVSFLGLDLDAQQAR


Molecular target: T1, angiotensin converting enzyme (ACE)
Experiment: other, ACE inhibition

| Binder | IC50 |
| --- | --- |
| KK | 921 µM |
| LL | 345 µM |
| FV | 979 µM |
| NDEG | 768 µM |
| GLF | 83 µM |
| WN | 368 µM |
| LF | 83 µM |
| YY | 257 µM |
| TYA | 526 µM |
| PDT | 272 µM |

Stronger by IC50, values ahead:

| IC50 | Binder |
| --- | --- |
| 26.9 µM | GNF |
| 77 µM | VVN |
| 46.2 µM | TF |
| 64.9 µM | NSL |
| 15.6 µM | TSF |
| 51.1 µM | FVNHF |
| 35.5 µM | VGGS |
